Target: T1, recombinant human Hsp70 (human, UniProt P0DMV8 1-641)
T1 construct: also called stress-inducible chaperone Hsp70
Assay: other fluorescence titration
Conditions: both partners purified

T1 sequence (P0DMV8 whole entry): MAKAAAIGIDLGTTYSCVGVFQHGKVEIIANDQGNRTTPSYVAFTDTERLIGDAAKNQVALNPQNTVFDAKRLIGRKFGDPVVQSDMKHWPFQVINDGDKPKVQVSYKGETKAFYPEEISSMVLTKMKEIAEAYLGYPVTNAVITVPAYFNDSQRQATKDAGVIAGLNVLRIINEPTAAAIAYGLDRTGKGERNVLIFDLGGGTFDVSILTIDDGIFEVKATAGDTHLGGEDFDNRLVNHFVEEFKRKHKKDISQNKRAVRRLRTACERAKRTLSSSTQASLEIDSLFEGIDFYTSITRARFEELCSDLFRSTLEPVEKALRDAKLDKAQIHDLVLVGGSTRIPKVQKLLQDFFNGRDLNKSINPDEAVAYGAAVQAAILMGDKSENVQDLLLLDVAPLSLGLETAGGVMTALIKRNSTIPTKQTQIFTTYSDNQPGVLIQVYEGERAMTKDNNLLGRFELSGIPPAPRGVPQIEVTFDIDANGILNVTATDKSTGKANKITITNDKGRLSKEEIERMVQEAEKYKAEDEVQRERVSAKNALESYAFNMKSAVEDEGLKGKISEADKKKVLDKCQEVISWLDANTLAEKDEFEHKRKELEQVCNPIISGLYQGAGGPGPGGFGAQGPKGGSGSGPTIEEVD

NRLLLTG (also called NR peptide) [peptide NRLLLTG]
IC50: 11.5 ± 3.8 µM

Source: paper PMC4738285 (Scientific Reports, 2016)
